assay: soluble on expression in E. coli; label from the status in PepcDB or PDB records

Sequence	soluble on expression in E. coli
EKMTRDEIEYMLTNSEETLDADEIEMLQGVFSLDELMAREVMVPRTDAFMVDINDDSSDIIQTILNERFSRIPVYDDDKDKIIGIIHTKNLLNAGFKEGFDHINLRRILQEPLFVPETIVVNDLLTALKNTQNQMAILLDEYGGVAGLVTLEDLLEEIVGEIDDETDKTAISVREIADNTYIVLGTM	not soluble
MGHHHHHHSHASELQQHVYDRAHLLSKAEIGKLESLSAKLGAKRDTDFIIITTKSTNGEDIADYTGDFYDRYGKGSTAILTIDMTNREVFIAGFKKAEQYLDNSRLNSIRNTISSDLSNENYFEAFETYIQLSYKDMGIKPGVNPDNI	not soluble
MSLTPAPDLTLGTAVDWRFAATVGRRLARPGPPSTDYTRRQVIDELAGAATKAEPLVRQVTGLLTDGADDGRVPAARIVDRPEWIAAAAESMRVMMNGTERPRGFLTGRVTGAQTGAVLAYVSSGILGQYDPFATDRGAGAGCLLLVYPNVIAVERQLRIEPSDFRLWVCLHEVTHRVQFTANPWLPGYMSQALALLTRDTGDDLGQVLSRLADYARNRGNTASQADANSTGILGLVRAVQSEPQRQALDQLLVLGTLLEGHADHVMDAVGPMAVPSVATIRRRFDERRHRKQPPLQRLLRALLGLDAKLSQYTRGKAFVDQVVGRVGMARFNAVWTGPETLPLPVEIEEPQRWIDRVLEGHHHHHH	soluble
MSLNILISGIHGFVGSNFIRALKDKHTLYGLDIVSPAKEGVVTTFSWQDFEPTSFPFQTLPQFDAIIHLAGKAHDTKKQSAAQSYFDINTGLTQKIFDFFLESSAKKFIFFSSVKAAADSVVGDVLTEDVIPTPVGPYGESKIKAEEYIKNHFMFPTSSISEDRSLRLEKEKGRIPKNKQVYILRPCMIHGPGNKGNLNLLYNVVKKGIPWPLGDFDNRRSFTSIDNLCYVIEGLLNQDVPTGIYHMGDDEALSTNELIGIMCEAMGKKPHIWKMNKRVMEGCAGLGTLMHLPLNTERLRKLTENYVVSNAKIKAALGIDKLPVTAKEGLMKTIRSFEETKEGHHHHHH	soluble
MEYQFTHSIHGIVAKCSMEHEVFARWLNTEIIGHTQNLHNILAEIEKCRAAFPNHYECVFEGQEYSLYFDCDEVIVKVNNLAMAIDEVIVEEGLQLYDQESVAFCGLEDFERFLQAYHKFSSTYH	not soluble
MKKFVALILGCITICGLYGCSKNSSQIINKTFSLPAYNRIEIDSANDDIKIISGKHYRVRYVGQNKLKPTIKVKNGVLVIDSPKKSTIINSNIFGSKNIKQTLTIEMPKKELKYLSVDTSNGDVSVDYLEVQKGTIDTSNGNVNLKNLITKKDFEIDTSNGTVKVGKSNVEGYALSTSNGSIVVKGENKSDEFEKNTSAKNVLSIDTSNGNIYVNLEHHHHHH	not soluble
MTRAEVGLVWAQSTSGVIGRGGDIPWSVPEDLTRFKEVTMGHTVIMGRRTWESLPAKVRPLPGRRNVVVSRRPDFVAEGARVAGSLEAALAYAGSDPAPWVIGGAQIYLLALPHATRCEVTEIEIDLRRDDDDALAPALDDSWVGETGEWLASRSGLRYRFHSYRRD	soluble
MPCQKKSNPTELHISTGREIVQRNFVFRNTTGKDFLLKLHATNEAVTFPTEVFRFPPLAHRAIQFRVNSSKLSQWDKMNLLIKGYVLPIYAKSLKQFIDQKKTAGTKEQEAFSLSVKFTDQFSAPQTVINLPGYATCIESTDYPVDVEELDTTTAVNIERDVSTAVPIGSMMGFVEEYKRRQLNKGCWFSNYICGTEKQPEKQSMRSSRRSSRSSNHSAKSSKACRIQANKKNKSDVNVCLEATPCGGSTIQA	not soluble
MAVNLYDYANQLEQALRESEEYKAIKEAFANVKANEESKKLFDEFRETQINFQQKQMQGEEIAEEDLQKAQEQAQAIEKDENISALMNAEQKMSQVFQEINQIIVKPLDEIYAD	not soluble
MMIVGCYCMNKLVFCLMGPTASGKTGLACELLTHFPFEIISVDSAMIYRDMNIGTAKPSIHELQRAPHYLIDIKDPVESYSAAQFCTDALSLCAEIIKRGNIPLLVGGTMMYFNALQKGLATLPEADEAVRKRLEEEALSQGWDFLYQKLSQLDPVTAARIHAHDTQRIQRALEVYYLTGSTLSTYLTGPHERPDYYFVNLALFPEQRSWLHERIAQRFDAMLSEGFIEEVQQLQAKWPIQINLPSMRCVGYRQILQHLAGHYDYETMREKGIAATRQLAKRQLTWLRHWEGALFYDSQNVGFNTDIIAKIREILDNTVSNLEHHHHHH	not soluble
MLINVNFNELLLELDSLSVYRNLLNDSVIKKLYELGDLIYKKEPGTDEFIKKYNEFFFELTSGSIQSLKEHIIELILFDENPYSRQSEKLPFENIDKVLIDAASKDLDRLHVISALTSRKFKDYALENICKSESEKRFIDSLPAWEFDGRSNQGKRKLSQNCQKMIDVLVSSNKWGECVKNLSDFYFTNGSGIFARYHAFVWEPSEKPSLRGVEFPDPIRLSDFIGYEQQRLEVIENTEKFVRGLPANNVLLYGDRGTGKSSTVKAIANEYREQGLRIIEIPRKYLVDFPAVLKLIKGRSCKFIIFIDDLAFEDSEESYTVLKSVLEGGVENRPDNVLIYATSNRRHLIKEKFSDRAGFKSDDPDDEIRAQDTMQEKLSLSERFGITVVFSSPDKKQFLQIVEGLVAKRGINIDKDTLQREAMKWELMYNGRSARTARQFVDWLEGSMKLKK	soluble
MSLCLPTIRKIAIIGAGPSGLVTAKALLAEKAFDQVTLFERRGSPGGVWNYTSTLSNKLPVPSTNPILTTEPIVGPAALPVYPSPLYRDLQTNTPIELMGYCDQSFKPQTLQFPHRHTIQEYQRIYAQPLLPFIKLATDVLDIEKKDGSWVVTYKGTKAGSPISKDIFDAVSICNGHYEVPYIPNIKGLDEYAKAVPGSVLHSSLFREPELFVGESVLVVGGASSANDLVRHLTPVAKHPIYQSLLGGGDIQNESLQQVPEITKFDPTTREIYLKGGKVLSNIDRVIYCTGYLYSVPFPSLAKLKSPETKLIDDGSHVHNVYQHIFYIPDPTLAFVGLALHVVPFPTSQAQAAFLARVWSGRLKLPSKEEQLKWQDELMFSLSGANNMYHSLDYPKDATYINKLHDWCKQATPVLEEEFPSPYWGEKERSIRENMWSIRAKFFGIEPPKEGHHHHHH	soluble
MAHHHHHHMTSVYNFKTITVVPTYKDFMDIVLSKTQRKTPTVVHKGYHISRIRQFYMRKVKFTQKTINEKLTYILQEFPRMDDIHPFYGDLMHVLYDRDHYKVALGQVGAVRHMVDNIGRDYVRLLKYGDSLYRCKQLKRAALGRMATACKKLNSALAYLEKVRQHMSRLPSIDPNARTLLVTGFPNVGKSSFMNKVTRADVEVQPYAFTTKSLFVGHTDYKYTTWQVIDTPGILDHSLEERNVIEMQAITALAHLRACILFFMDLSGQCGYSIEQQVSLFKSVGPLFTGKPVVVVFNKCDVCTIDDVSSAEQELIMDAIQEADAKWITTSTLTDVGVGDLKTVACDMLLAHRSEQKEGSGRYQAIQNRLYCATPQQRDELERPAFVPASVLQARATGEPPRQRRKTERDYEWENGGPGQYQKNERKTWDLENPEWVDDIIPDIMDGHNIYDNIDPDIHQRLLELEAEEEARLEDLELEASRKHEQYTLDNDTIEAVKFIKDKIKVLKMERAMKNPAIRRTHSQAMAIDKFNKRTGSQDARAKSIADGSGEVPTRKRGRSMSVAQEALIRDRSGSAHVSTKTTRSISGASASRERSMSVNRGDGYRDVNEKLRAVKLSKVKARPLARQARKGEGDHHIPNLRPMHLFTGKVKSNGARDRR	not soluble
MGSDKIHHHHHHMAHLSYSPPRNFDALYRQRVFQSHQAVRMHDAAARELADHSLTWRSGNVDAALYKARARRLTLFSFRYGAEVEIAPRPSEEFIVVHHSIRGAAELSVDGQHMVLPQGRTGWMAPRRNWRMRWEAGCEQLILKIPRDMIEAGGIAPMAPLATLPAGLDTQWLLLVQVLLGASSAPTCAGEPAAWVEHIEQGLASLLRAASSCSLPRESSDRNFVARDPIARLQAMEDYMRERLGAPIGLADLSGAAGVSARVLQQTCQRHRQMSPMELLRDMRLDAVHAWLSEHPSANITETALFYGFGHLGRFAAYYRQRFGESPHQTAQRRCCALS	not soluble
MYAMNLARYKYCPDIKEKGLSGSPRLILFTSAECHYSMKKAASFLGIGTENVCFVETDGRGKMIPEELEKQVWQARKEGAAPFLVCATSGTTVLGAFDPLDEIADICERHSLWLHVDASWGGSALMSRKHRKLLHGIHRADSVAWNPHKMLMAGIQCCALLVKDKSDLLKKCYSAKASYLFQQDKFYDVSYDTGDKSIQCSRRPDAFKFWMTWKALGTLGLEERVNRALALSRYLVDEIKKREGFKLLMEPEYANICFWYIPPSLREMEEGPEFWAKLNLVAPAIKERMMKKGSLMLGYQPHRGKVNFFRQVVISPQVSREDMDFLLDEIDLLGKDM	soluble
MSLDSLGAINKIQDFLQKQEYKTLEYNLTTTEVVMENVTAFWEEGFGELFEKAKQNNNNRKTSNGDDSLFFSNFSLLGTPVLKDINFKIERGQLLAVAGSTGAGKTSLLMMIMGELEPSEGKIKHSGRISFCSQFSWIMPGTIKENIIFGVSYDEYRYRSVIKACQLEEDISKFAEKDNIVLGEGGITLSGGQRARISLARAVYKDADLYLLDSPFGYLDVLTEKEIFESCVCKLMANKTRILVTSKMEHLKKADKILILMKVAAIFMGHFQNSKIYSQTLAQNSWDVILSTNLVQKEEIQS	soluble
VILKDALLMGTKLLKSADIDTPALEAGVLLCRVLNVDRSYLYSHDDYNMTEEEYKKFTLFLEERIKGKPLQYITGHQEFMSLDFIVTPDVLIPRQDTETLVEAVLTHVKSTGLENARILDIGTGSGCIAVSLAHFLKDSRVLALDISEKALEIAETNAKRCGVWDRMFFLKGDALEGLAGIIAQSPFAKDFERKGEGFFDIIVSNPPYIPSEEIKTLHKQVKDYEPRTALDGGIDGLDFYRAITCEAAKLLSTDSLLAFEVGYNQAENVSEFMKESFSAIKVVKDLAGIDRVVMGCRKQLKD	soluble
MAMTLAEKILAKASGNTQVSPGDIVMAKVETAMVHDITGPLSVNTLKKEGISKVWDNEKIVIPFDHQIPADSINAAENHILMRNFVKEQNIKHFYDIREGVCHQVLPEKGHIVPGTVVVGADSHTCTYGAFGAFATGIGSTDMAAAFATGELWFKVPET	not soluble
AQAFVNSKIQPGKVVVFIKPTCPFCRKTQELLSQLPFKEGLLEFVDITATSDTNEIQDYLQQLTGARTVPRVFIGKECIGGCTDLESMHKRGELLTRLQQVGAVK	soluble
MAHHHHHHMPENDEHVVVQACSVRVALPASTQPCGVEDAVQHCLHAARAIVQINLVRGTPRVALQLLACRTDACGEQHTASQVLDESPRRLQYALLLRGFEQRGGPVNRLDHTSLACAMCVPNYFSPHHFGAAAVPFFRTYHVTEALAKRRYADAAVMMACLEVETVAEASTEVPPWLARALQLLCRGEDREGVWQAWWIHEVPAATQRRMVCAKSDLVWNVVASHRLQELVAATGGCRDVLLAAAPKPGDFVFQLEEAEDSGATSAALAPVALSAPVTAVYSQAQAARYSVHDIALPLVLDASSEFEGCESLAVIEAQLGFTHDRRRHLSLHPSQRPCQSHTSLPAVAQTNETVFRPLLVEATGYPRATRPWCRSFPEPSVGPAFDRPKAALESNATVFALATDWDLASQTAVARDYAAKSRGPRACVWPLSKRGRALTDRLPAGLMTVASADGSSLLGGASTTNYHGSRCLAIHCTLPARVSLANFVSELAAVEDLRDSQA	not soluble
MIPHTDIVHNLAEKVVVVRLEKPVTFHNMIAPGKEVEVSLLFFIINNSSSSQTNILAQLMDFFTGNGHLEDLSKISEPEALYAYIAEATA	not soluble

Reference: the DeepSol protein solubility set
